Publication PMC9092470, “Understanding p300-transcription factor interactions using sequence variation and hybridization†” (RSC Chemical Biology, 2022)
No end group written: not given here.

How the values were obtained:
[1] = molecular target: GST-tagged p300 CH1 domain (residues 330–420) (UniProt Q09472); assay: fluorescence polarisation; fluorescence anisotropy by the fluorescence of GFP; GFP-HIF-1α 776–826 variants with GST-p300; 25 mM Tris–HCl, 150 mM NaCl, 1 mM DTT, pH 7.4; 1:1 model, each p300 site of the GST dimer taken as independent
[2] = molecular target: GST-p300 (p300 CH1 domain, residues 330–420) (Homo sapiens, UniProt Q09472); assay: Fluorescence anisotropy direct titration of GFP-HIF-1α776–826 variants with GST-p300; type: binding; details: 50 nM GFP-HIF-1α776–826 variant, GST-p300 serial dilution, 25 mM Tris–HCl, 150 mM NaCl, 1 mM DTT, pH 7.4, 27 °C, 1:1 model, ± standard error of fitted value, technical triplicates
Source text: To experimentally compare the predictions, we carried out an in vitro biophysical study of several HIF-1α sequence variants. We assessed predicted hot residues and their interactions with p300 using the NMR structure to visualize the structural basis behind the predictions (See ESI, ^† Fig. S2). These analyses helped refine a first series of alanine variants to prepare. […] HIF-1α776–826 sequence variants were recombinantly prepared based on the predictions to test their binding to the recombinantly prepared p300 (Fig. 2). Given the length of the peptide ([…]), this was considered advantageous as it obviates the need to chemically synthesise, label and purify multiple variants. As the C-TAD domain is unstructured in isolation it was recombinantly expressed as a fusion protein with GFP. The green-fluorescent protein (GFP) tag was used for fluorescence anisotropy (FA) experiments to determine the binding affinity of HIF-1α776–826 C-TAD variants to p300. As the CH1 domain of p300 is a small domain of 11 kDa it was recombinantly expressed as a fusion protein with GST to increase its size and thus the signal to noise in the FA experiments. We established an assay where the interaction between GFP-tagged wt HIF-1α776–826 and GST-tagged p300 was monitored by FA, using the fluorescence of GFP. GST dimerises with single digit nM Kd[61] (and in our hands exists as a dimer in size exclusion chromatography analyses, see ESI, ^† Fig. S15 for protein characterization data), thus two molecules of GFP-HIF-1α could bind to the GST-p300 dimer (Fig. 2a). We make the assumption that each p300 binding site behaves independently and analyse the binding isotherm using a 1 : 1 model.
Fig. 2 Biophysical analyses on the effects of HIF-1α sequence variant p300 binding affinity. (a) schematic depicting the equilibrium for interaction of GFP-HIF-1α776–826 variants and GST-p300 as studied by fluorescence anisotropy; (b) representative fluorescence anisotropy titration data for sAV and mAV GFP-HIF-1α776–826 peptides interacting with GST-p300 (25 mM Tris–HCl, 150 mM NaCl, 1 mM DTT, pH 7.4), error bars represent standard deviation of technical triplicates; (c) raw ITC data (upper) and fitted thermogram (lower) for the interaction of GFP-HIF-1α776–826 peptides with p300 (37 °C in 25 mM Tris–HCl, 150 mM NaCl, 1 mM DTT, pH 7.4) using 10 μM p300 in the cell and 100 μM GFP-HIF-1α776–826 variant in the syringe; error bars represent estimated integration errors (d) thermodynamic signatures for each interaction. […]
7.4 buffer or dialysed into 25 mM Tris, 150 mM NaCl, 1 mM DTT pH 7.4 buffer.
GSTp300 protein was serially diluted in buffer (25 mM Tris-HCl, 150 mM NaCl, 1mM DTT, pH 7.4) and GFP-HIF-1α (50nM final concentration) was added, the plates were read after 0 min, 60 min, 4 h and 24 h, and incubated at room temperature in between. Each experiment was run in triplicate and the fluorescence anisotropy measured using an EnVision 2103 MultiLabel plate reader (Perkin Elmer) with excitation at 480 nm and emission at 535 nm (30 nm bandwidths). The recorded temperature for all measurements was 27°C ± 1°C. In parallel, a control experiment was performed in which no GFP-HIF was added and the volume made up with additional buffer, this blank was deducted from the raw data for each of the three repeats.
The intensity was calculated for each point using eqn (1) and used to calculated anisotropy […]
using eqn (2). From a plot of anisotropy against GST-p300 concentration the minimum and maximum anisotropies were obtained using a logistic sigmoidal fit in OriginPro 8.6. This allowed the conversion to fraction bound (eqn (3)). The data were then fitted using eqn (4) in OriginPro 8.6 to determine the dissociation constant, Kd. […]
5 µl injections and 180 s spacing between injections, for 40 injections. Titrations were performed in 40 mM Na-phosphate, pH 7.5 100 mM NaCl, 1 mM DTT buffer except for GFP- […]

GST-p300 (p300 CH1 domain, residues 330–420), sequence (Q09472 330-420): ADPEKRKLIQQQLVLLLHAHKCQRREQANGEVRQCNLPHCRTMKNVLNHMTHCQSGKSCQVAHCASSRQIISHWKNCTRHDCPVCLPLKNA

Kd [1] | Kd [2] | Substance
224 nM |  | GFP-HIF-1α 776–826 E801A L822A (from UniProt Q16665 776-826) (domain or fragment)
 | 128 ± 11 nM | E817A: GFP-HIF-1α776–826 C-TAD single alanine variant E817A ({GFP}-SDLACRLLGQSMDESGLPQLTSYDCEVNAPIQGSRNLLQGEALLRALDQVN; cysteine pairing not given here)
 | 174 ± 45 nM | L795A D799A L822A: GFP-HIF-1α776–826 C-TAD multiple alanine variant ({GFP}-SDLACRLLGQSMDESGLPQATSYACEVNAPIQGSRNLLQGEELLRAADQVN; cysteine pairing not given here)
 | 590 ± 302 nM | D799A E801A N803A: GFP-HIF-1α776–826 C-TAD multiple alanine variant ({GFP}-SDLACRLLGQSMDESGLPQLTSYACAVAAPIQGSRNLLQGEELLRALDQVN; cysteine pairing not given here)
54 nM |  | GFP-HIF-1α 776–826 L818A L822A V825A (from UniProt Q16665 776-826) (domain or fragment)
 | 54 ± 33 nM | L818A L822A V825A: GFP-HIF-1α776–826 C-TAD multiple alanine variant ({GFP}-SDLACRLLGQSMDESGLPQLTSYDCEVNAPIQGSRNLLQGEEALRAADQAN; cysteine pairing not given here)
237 nM |  | GFP-HIF-1α 776–826 L818A (from UniProt Q16665 776-826) (domain or fragment)
118 nM |  | GFP-HIF-1α 776–826 L795A (from UniProt Q16665 776-826) (domain or fragment)
174 nM |  | GFP-HIF-1α 776–826 L795A D799A L822A (from UniProt Q16665 776-826) (domain or fragment)
 | 118 ± 19 nM | L795A: GFP-HIF-1α776–826 C-TAD single alanine variant L795A ({GFP}-SDLACRLLGQSMDESGLPQATSYDCEVNAPIQGSRNLLQGEELLRALDQVN; cysteine pairing not given here)
 | 237 ± 40 nM | L818A: GFP-HIF-1α776–826 C-TAD single alanine variant L818A ({GFP}-SDLACRLLGQSMDESGLPQLTSYDCEVNAPIQGSRNLLQGEEALRALDQVN; cysteine pairing not given here)
 | 114 ± 53 nM | D799A: GFP-HIF-1α776–826 C-TAD single alanine variant D799A ({GFP}-SDLACRLLGQSMDESGLPQLTSYACEVNAPIQGSRNLLQGEELLRALDQVN; cysteine pairing not given here)
114 nM |  | GFP-HIF-1α 776–826 D799A (from UniProt Q16665 776-826) (domain or fragment)
 | 126 ± 33 nM | L818A L822A: GFP-HIF-1α776–826 C-TAD multiple alanine variant ({GFP}-SDLACRLLGQSMDESGLPQLTSYDCEVNAPIQGSRNLLQGEEALRAADQVN; cysteine pairing not given here)
31 nM |  | GFP-HIF-1α 776–826 Q824A (from UniProt Q16665 776-826) (domain or fragment)
153 nM |  | GFP-HIF-1α 776–826 L795A D799A L818A L822A V825A (from UniProt Q16665 776-826) (domain or fragment)
37 nM |  | GFP-HIF-1α 776–826 S797A (from UniProt Q16665 776-826) (domain or fragment)

Kd [1] | Kd [2] | Substance
 | 255 ± 44 nM | L795A D799A: GFP-HIF-1α776–826 C-TAD multiple alanine variant ({GFP}-SDLACRLLGQSMDESGLPQATSYACEVNAPIQGSRNLLQGEELLRALDQVN; cysteine pairing not given here)
120 nM |  | GFP-HIF-1α 776–826 N803A (from UniProt Q16665 776-826) (domain or fragment)
 | 224 ± 18 nM | E801A L822A: GFP-HIF-1α776–826 C-TAD multiple alanine variant ({GFP}-SDLACRLLGQSMDESGLPQLTSYDCAVNAPIQGSRNLLQGEELLRAADQVN; cysteine pairing not given here)
198 nM |  | GFP-HIF-1α 776–826 V825A (from UniProt Q16665 776-826) (domain or fragment)
 | 120 ± 17 nM | N803A: GFP-HIF-1α776–826 C-TAD single alanine variant N803A ({GFP}-SDLACRLLGQSMDESGLPQLTSYDCEVAAPIQGSRNLLQGEELLRALDQVN; cysteine pairing not given here)
 | 198 ± 37 nM | V825A: GFP-HIF-1α776–826 C-TAD single alanine variant V825A ({GFP}-SDLACRLLGQSMDESGLPQLTSYDCEVNAPIQGSRNLLQGEELLRALDQAN; cysteine pairing not given here)
126 nM |  | GFP-HIF-1α 776–826 L818A L822A (from UniProt Q16665 776-826) (domain or fragment)
 | 37 ± 16 nM | S797A: GFP-HIF-1α776–826 C-TAD single alanine variant S797A ({GFP}-SDLACRLLGQSMDESGLPQLTAYDCEVNAPIQGSRNLLQGEELLRALDQVN; cysteine pairing not given here)
255 nM |  | GFP-HIF-1α 776–826 L795A D799A (from UniProt Q16665 776-826) (domain or fragment)
 | 153 ± 19 nM | L795A D799A L818A L822A V825A: GFP-HIF-1α776–826 C-TAD multiple alanine variant ({GFP}-SDLACRLLGQSMDESGLPQATSYACEVNAPIQGSRNLLQGEEALRAADQAN; cysteine pairing not given here)
 | 109 ± 66 nM | L822A: GFP-HIF-1α776–826 C-TAD single alanine variant L822A ({GFP}-SDLACRLLGQSMDESGLPQLTSYDCEVNAPIQGSRNLLQGEELLRAADQVN; cysteine pairing not given here)
109 nM |  | GFP-HIF-1α 776–826 L822A (from UniProt Q16665 776-826) (domain or fragment)
 | 247 ± 75 nM | L818A L822A D823A: GFP-HIF-1α776–826 C-TAD multiple alanine variant ({GFP}-SDLACRLLGQSMDESGLPQLTSYDCEVNAPIQGSRNLLQGEEALRAAAQVN; cysteine pairing not given here)
590 nM |  | GFP-HIF-1α 776–826 D799A E801A N803A (from UniProt Q16665 776-826) (domain or fragment)
128 nM |  | GFP-HIF-1α 776–826 E817A (from UniProt Q16665 776-826) (domain or fragment)
 | 31 ± 8 nM | Q824A: GFP-HIF-1α776–826 C-TAD single alanine variant Q824A ({GFP}-SDLACRLLGQSMDESGLPQLTSYDCEVNAPIQGSRNLLQGEELLRALDAVN; cysteine pairing not given here)
247 nM |  | GFP-HIF-1α 776–826 L818A L822A D823A (from UniProt Q16665 776-826) (domain or fragment)
